The target in this assay is monoclonal 2H5 antibody produced by rat-mouse hybridoma 2H5 (FERM BP-11245). Put plainly: competitive elution of eTEV-GFPUV from 2H5 sepharose, peptide 0 to 1000 µg/mL, SDS gel.

In turn, RENLYFQGKDG [eTEV peptide (free peptide used as competitive eluent)] gave a peptide concentration giving complete competitive elution of 30 µg/mL.

(Values after US20120052569A1.)
